Measurements from patent US20190241668A1 (ARGENX, published 2019).
Substitutions are numbered along the chain they refer to.

B1: Fab clone 2B10 (Fab, V domains shown)
VH: QVQLQESGPGLVKPSQTLSLTCTVSGGSITTNRYLWTWIRQTPGKGLEWVGAIAYSGRTYYSPSLKSRTSISRDTSKNQFTLQLSSVTPEDTGVYYCAHFTGWGGYYWGQGTQVTVSS
VL: QSALTQPPSVSGTLGKTVTISCAGTSSDIGGYNSVSWYQQLPGTAPKLLIYEVNKRASGIPDRFSGSKSGNTASLSISGLQSEDEADYYCASYRSANNVVFGGGTKLTVL
notes: Llama-derived Fab from an immune library; the constant domains of the Fab are not; also called 2610; 21310
B2: Fab clone 2A6 (Fab, V domains shown)
VH: QVQLVESGGGLVQPGGSLRLSCAASGFTFSNYWMYWVRQAPGKGLEWVSTINTNGAITLYADNVKDRFTVSRDNAKNTLYLQMNSLKSEDTAVYYCAKVKLSGYPHPYYAMDYWGKGTLVTVSS
VL: NFMLTQPPSLSGSLGQSARLTCTLGSGNSIGAHTISWYQQKAGSPPRYLLNYYSDSSNHQASGVPSRFSGSKDDSTNAGLLLISGLQPEDEADYYCAAGDGSGTVFGGGTKLTVL
notes: Llama-derived Fab from an immune library; the constant domains of the Fab are not
B3: Fab clone 2C6 (Fab, V domains shown)
VH: QVQLVESGGGLVQPGGSLRLSCAASGFAFSSYDMSWVRQAPGKGPEWVSTINSGGGSTSYADSVKGRFTISRDNAKNTVYLQMNSLKPEDTAVYYCAARSLYYTRVPMYDYWGQGTQVTVSK
VL: QAVVTQEPSLSVSPGGTVTLTCGLSSGSVTTNNYPGWFQQTPGQAPRTLIYSTSSRHSGVPSRFSGSISGNKAALTITGAQPEDEADYYCALDIGSYTAVFGGGTHLTVL
notes: as for B2
B4: Fab clone 2B6 (Fab, V domains shown)
VH: B3 VH with P45L, S59N, V64M, L101P, M108L, K122S
VL: QAVVTQEPSLSVSLGGTVTLTCGLRSGSVTTSNYPGWFKQTPGQAPRTLIFGASSRHSGVPSRYSGSISGNKAALTITGAEPEDEADYYCALNKGTYTDVFGGGTKLTVL
notes: as for B2
B5: Fab clone 1A11 (Fab, V domains shown)
VH: EVQLVESGGGLVQPGGSLRLSCAASGFTFSSYAMSWVRQAPGKGPEWVSHINSGGGNTKYADSVKGRFTISRDNAKNTLYLQMNTLKPEDTAVYYCAKDVSGGYYGTYALDAWGQGTQVVVSS
VL: SYELTQSPSVSVALKQTAKITCGGDNIGSKSAQWYQQKPGQAPVLVIYADSRRPSGIPERFSGSNSGNTATLTISGAQAEDEADYYCQVWDSSAAVFGGGTHLTVL
notes: as for B2
B6: Fab clone 2E9 (Fab, V domains shown)
VH: EVQLVESGGGLVQPGGSLRLSCAASGFTFDDYTMSWVRQVPGKGLEWISGISGNGGRTDYVEPIEGRFTISRDNAKNTLYLQMNSLKSEDTAVYYCAKTSPQSLDYWGQGTQVTVSS
VL: DIVMTQSPSSVTASVGEKVTINCKSSQSVVSGSNQKSYLNWYQQRPGQPPRLLIYYASTQESGIPDRFSGSGSTTDFTLTISSVQPEDAAVYYCQQAYSAPYNFGSGTRLEIK
notes: as for B2
B7: Fab clone 2A2 (Fab, V domains shown)
VH: EVQVQESGGGLVQPGGSLRLSCAASGFTFSSYAMSWVRQAPGKGLEWVSDINSGGGSTVYTDSVKGRFTISRDNAKNTLYLQMNSLKPDDTAVYYCATGGSYYSYRLFDYWGQGTQVTVSS
VL: DIQMTQSPSSVIVSAGEKVTINCKSSQSVLDSSNQKNYLAWYQQRLGQSPRLLIYWASTRESGVPDRFSGSGSTTDFTLTISSFQPEDAAVYYCQQGYSVPVTFGQGTKVELKR
notes: as for B2
B8: Fab clone 2G6 (Fab, V domains shown)
VH: EVQLVESGGGLVQPGGSLRLSCAASGFTFSSYSMSWVRQAPGKGPEWVSGINTSGGTTSYAASVKGRFTVSRDNAKNTLSLQMNSLEPEDTAVYYCVKHIRWSGSNYYYYGMDYWGKGTLVTVSS
VL: QAVLTQPPSVSGSPGQRFTISCTGSNRNIGNNYVNWYQQLPGTAPKLLIYSDNLRTSGVPARFSASKSGTTSSLTISGLQAEDEAVYYCSSWDDSLSGAVFGGGTHLTVL
notes: as for B2
B9: Fab clone 2B9 (Fab, V domains shown)
VH: EVQLQESGPGLVKPSQTLSLTCTVSGASVTTRYNYWSWIRQPPGKGLEWMGAITYSGSTYYSPSLKSRTSISRDTSKNQFTLQLSSVTPEDTAVYYCATEGSSSTGVSRYSFGSWGQGTQVTVSS
VL: ATMLTQSPGSLSVVPGESASISCKASQSLTHTDGTTALYWLQQKPGQRPQLLIYEVSVRASGVPDRFTGSGSGSDFTLKINGVKAEDAGVYYCAQVAYYPTFGQGTKVELK
notes: as for B2
B10: Fab clone 2E7 (Fab, V domains shown)
VH: ELQVVESGGGLVQPGGSLRLSCAASGFTFGSYDMSWHRQAPRKGPEWVSTISAGGGRTYYADSVKGRFTISRDNAKNTLYLQMNSLKPEDTAVYFCTKIVLDSWGQGTQVTVSS
VL: DVVLTQTPGSLSVVPGESASISCKASQSLIHIDGKTYLYWLLQKPGRRPELLIYQVSNHESGVPDRFTGSGSGTDFTLKISGVKAEDAGVYYCAQATYYPSFGSGTRLEIK
notes: as for B2
B11: Fab clone 2F8 (Fab, V domains shown)
VH: B10 VH with L2V, V4L, H37V, R42G, G66D, F95Y, T97A, I99V, L101I, S103Y
VL: B10 VL with I30V, I32T, L38V, R47Q, E50H
notes: as for B2
B12: Fab clone 2D6 (Fab, V domains shown)
VH: QVQLQESGGGLVQPGGSLTLSCAASGFFFSSYAMSWVRQAPGKGLEWVSSISAGGGTSYYADSVKGRFTISRDSAKNTLVLQMNSLKPEDTAVYYCAKKRQNFWSEGYDSWGQGTQVTVSS
VL: HSAVTQPPSVSGSPGKAVTISCVGSSSDVGYGDYVSWYQQLPGMAPKLLIYDVEKRASGIPDRFSGSKSGNTASLTISGLQSEDEADYYCASYRSDSNFVFGGGTHLAVL
notes: as for B2
B13: Fab clone 2A9 (Fab, V domains shown)
VH: QVQLVESGPGLVKPSQTLSLTCTVSGGSITTSDDAWSWIRQPAGKGLEWMGVIAYDGSTRYSPSLQSRTSISRDTSKNQFSLQLSSVTPEDTAVYYCARTKGVGGTWALDAWGQGTLVTVSS
VL: EIVLTQSPSSVTASVGEKVTINCKSSQSVLSSSNQKNYLSWYQQRLGQSPRLLITWASTRESGVPDRFSGSGSTTDFTLTISSFQPEDAAVYYCQQGYGAPLTFGQGTKVELKR
notes: as for B2
B14: Fab clone 2E2 (Fab, V domains shown)
VH: QLQLVESGGGLVQPGGSLRLSCAASGFTFGSYDMSWVRQAPGKGPEWVSRITSGGGSTYADSVKGRFTISRDNAKNTLSLQMNSLKSEDTAVYYCAAGQYSDGYYPYDYWGQGTQVTVSS
VL: DIVMTQSPSSLSASLGDRVTITCQASQSISSYLAWYQQKPGQGPKLLIYGASRLEPGVPSRFSGSGSGTSFTLTISGVEAEDLATYYCLQDYSWPYSFGSGTRLEIK
notes: as for B2

target: T1, TIM-3 (T cell immunoglobulin and mucin-domain containing-3) (human, UniProt Q8TDQ0 22-200, limits assumed); assay: Biacore, Fab on TIM-3
T1 construct: also called TIMD-3; HAVCR2
T1 sequence (looked up): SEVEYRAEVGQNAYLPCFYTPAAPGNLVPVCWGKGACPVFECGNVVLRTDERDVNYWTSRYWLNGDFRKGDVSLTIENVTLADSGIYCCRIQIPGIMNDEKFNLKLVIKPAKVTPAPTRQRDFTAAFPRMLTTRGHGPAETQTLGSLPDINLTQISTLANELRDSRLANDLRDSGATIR

With B1 as the binder, how does the koff read?
Its koff is 1.85e-05 s⁻¹.

How did the koff turn out when B2 was run?
Its koff is 0.000151 s⁻¹.

B3 was tested. Which koff did it give?
The koff was 1.04e-05 s⁻¹.

How did the koff turn out when B4 was run?
The koff was 3.64e-05 s⁻¹.

How did the koff turn out when B5 was run?
Its koff is 2.48e-05 s⁻¹.

B6 was tested. Which koff did it give?
Its koff is 6.64e-05 s⁻¹.

With B7 as the binder, how does the koff read?
Its koff is 4.41e-05 s⁻¹.

For B8, which koff is on record?
Its koff is 3.72e-05 s⁻¹.

With B9 as the binder, how does the koff read?
Its koff is 4.87e-05 s⁻¹.

Which koff does the source give for B10 here?
Its koff is 7.62e-05 s⁻¹.

Which koff does the source give for B11 here?
Its koff is 8.53e-05 s⁻¹.

Which koff does the source give for B12 here?
Its koff is 0.000166 s⁻¹.

target: T1, TIM-3 (T cell immunoglobulin and …); assay: ELISA, Fab on TIM-3

For B1, which EC50 is on record?
The EC50 was 0.014 µg/mL.

B13 was tested. Which EC50 did it give?
The EC50 was 0.0114 µg/mL.

B2 was tested. Which EC50 did it give?
The EC50 was 0.0104 µg/mL.

How did the EC50 turn out when B3 was run?
Its EC50 is 0.00821 µg/mL.

Which EC50 does the source give for B4 here?
Its EC50 is 0.00852 µg/mL.

With B5 as the binder, how does the EC50 read?
The EC50 was 0.01 µg/mL.

For B6, which EC50 is on record?
The EC50 was 0.0149 µg/mL.

With B7 as the binder, how does the EC50 read?
Its EC50 is 0.00805 µg/mL.

Which EC50 does the source give for B8 here?
The EC50 was 0.0133 µg/mL.

For B14, which EC50 is on record?
The EC50 was 0.121 µg/mL.

With B9 as the binder, how does the EC50 read?
The EC50 was 0.00851 µg/mL.

Which EC50 does the source give for B10 here?
Its EC50 is 0.0133 µg/mL.

How did the EC50 turn out when B11 was run?
The EC50 was 0.0181 µg/mL.

With B12 as the binder, how does the EC50 read?
The EC50 was 0.00717 µg/mL.
